Test results from publication PMC10724065, “Evolution of a plant growth-regulatory protein interaction specificity” (Nature Plants, 2023).

B1: Arabidopsis thaliana AtSLY1 (yeast bait fusion) [Arabidopsis thaliana] / A. thaliana GAI (yeast prey fusion) [Arabidopsis thaliana] (parent complex)
chain 1: MKRSTTDSDLAGDAHNETNKKMKSTEEEEIGFSNLDENLVYEVLKHVDAKTLAMSSCVSKIWHKTAQDERLWELICTRHWTNIGCGQNQLRSVVLALGGFRRLHSLYLWPLSKPNPRARFGKDELKLTLSLLSIRYYEKMSFTKRPLPESK
chain 2: MKRDHHHHHHQDKKTMMMNEEDDGNGMDELLAVLGYKVRSSEMADVAQKLEQLEVMMSNVQEDDLSQLATETVHYNPAELYTWLDSMLTDLNPPSSNAEYDLKAIPGDAILNQFAIDSASSSNQGGGGDTYTTNKRLKCSNGVVETTTATAESTRHVVLVDSQENGVRLVHALLACAEAVQKENLTVAEALVKQIGFLAVSQIGAMRKVATYFAEALARRIYRLSPSQSPIDHSLSDTLQMHFYETCPYLKFAHFTANQAILEAFQGKKRVHVIDFSMSQGLQWPALMQALALRPGGPPVFRLTGIGPPAPDNFDYLHEVGCKLAHLAEAIHVEFEYRGFVANTLADLDASMLELRPSEIESVAVNSVFELHKLLGRPGAIDKVLGVVNQIKPEIFTVVEQESNHNSPIFLDRFTESLHYYSTLFDSLEGVPSGQDKVMSEVYLGKQICNVVACDGPDRVERHETLSQWRNRFGSAGFAAAHIGSNAFKQASMLLALFNGGEGYRVEESDGCLMLGWHTRPLIATSAWKLSTN

Variants of: B1
Assay: yeast 2-hybrid; parent: 0.35; read off a plot

response	Variant
~110 β-galactosidase units	chain 1 T128A, chain 1 E138K
~160 β-galactosidase units	chain 1 H104Y, chain 1 E138K
~77 β-galactosidase units	chain 1 P114L, chain 1 E138K

Variants of: B1
Assay: yeast 2-hybrid; parent: 0.38; read off a plot

response	Variant
~0.26 β-galactosidase units	chain 1 K126R

Variants of: B1
Assay: yeast 2-hybrid; parent: 0.35; read off a plot
Remark: another data set of the same source

Variant	response
chain 1 P114H	~77 β-galactosidase units
chain 1 P114A	~89 β-galactosidase units

More lines, now with the values ahead:

response	Variant
~34 β-galactosidase units	chain 1 P114T
~94 β-galactosidase units	chain 1 P114R
